Laboratory results taken from patent US20190374506A1 (BETH ISREAL DEACONESS MEDICAL CENTER, published 2019).

B1: Clustered mitochondria protein homolog (other)
chain: MLLNGDCPESLKKEAAAAEPPRENGLDEAGPGDETTGQEVIVIQDTGFSVKILAPGIEPFSLQVSPQEMVQEIHQVLMDREDTCHRTCFSLHLDGNVLDHFSELRSVEGLQEGSVLRVVEEPYTVREARIHVRHVRDLLKSLDPSDAFNGVDCNSLSFLSVFTDGDLGDSGKRKKGLEMDPIDCTPPEYILPGSRERPLCPLQPQNRDWKPLQCLKVLTMSGWNPPPGNRKMHGDLMYLFVITAEDRQVSITASTRGFYLNQSTAYHFNPKPASPRFLSHSLVELLNQISPTFKKNFAVLQKKRVQRHPFERIATPFQVYSWTAPQAEHAMDCVRAEDAYTSRLGYEEHIPGQTRDWNEELQTTRELPRKNLPERLLRERAIFKVHSDFTAAATRGAMAVIDGNVMAINPSEETKMQMFIWNNIFFSLGFDVRDHYKDFGGDVAAYVAPTNDLNGVRTYNAVDVEGLYTLGTVVVDYRGYRVTAQSIIPGILERDQEQSVIYGSIDFGKTVVSHPRYLELLERTSRPLKILRHQVLNDRDEEVELCSSVECKGIIGNDGRHYILDLLRTFPPDLNFLPVPGEELPEECARAGFPRAHRHKLCCLRQELVDAFVEHRYLLFMKLAALQLMQQNASQLETPSSLENGGPSSLESKSEDPPGQEAGSEEEGSSASGLAKVKELAETIAADDGTDPRSREVIRNACKAVGSISSTAFDIRFNPDIFSPGVRFPESCQDEVRDQKQLLKDAAAFLLSCQIPGLVKDCMEHAVLPVDGATLAEVMRQRGINMRYLGKVLELVLRSPARHQLDHVFKIGIGELITRSAKHIFKTYLQGVELSGLSAAISHFLNCFLSSYPNPVAHLPADELVSKKRNKRRKNRPPGAADNTAWAVMTPQELWKNICQEAKNYFDFDLECETVDQAVETYGLQKITLLREISLKTGIQVLLKEYSFDSRHKPAFTEEDVLNIFPVVKHVNPKASDAFHFFQSGQAKVQQGFLKEGCELINEALNLFNNVYGAMHVETCACLRLLARLHYIMGDYAEALSNQQKAVLMSERVMGTEHPNTIQEYMHLALYCFASSQLSTALSLLYRARYLMLLVFGEDHPEMALLDNNIGLVLHGVMEYDLSLRFLENALAVSTKYHGPKALKVALSHHLVARVYESKAEFRSALQHEKEGYTIYKTQLGEDHEKTKESSEYLKCLTQQAVALQRTMNEIYRNGSSANIPPLKFTAPSMASVLEQLNVINGILFIPLSQKDLENLKAEVARRHQLQEASRNRDRAEEPMATEPAPAGAPGDLGSQPPAAKDPSPSVQG
B2: Heterogeneous nuclear ribonucleoprotein U-like protein 1 (other)
chain: MDVRRLKVNELREELQRRGLDTRGLKAELAERLQAALEAEEPDDERELDADDEPGRPGHINEEVETEGGSELEGTAQPPPPGLQPHAEPGGYSGPDGHYAMDNITRQNQFYDTQVIKQENESGYERRPLEMEQQQAYRPEMKTEMKQGAPTSFLPPEASQLKPDRQQFQSRKRPYEENRGRGYFEHREDRRGRSPQPPAEEDEDDFDDTLVAIDTYNCDLHFKVARDRSSGYPLTIEGFAYLWSGARASYGVRRGRVCFEMKINEEISVKHLPSTEPDPHVVRIGWSLDSCSTQLGEEPFSYGYGGTGKKSTNSRFENYGDKFAENDVIGCFADFECGNDVELSFTKNGKWMGIAFRIQKEALGGQALYPHVLVKNCAVEFNFGQRAEPYCSVLPGFTFIQHLPLSERIRGTVGPKSKAECEILMMVGLPAAGKTTWAIKHAASNPSKKYNILGTNAIMDKMRVMGLRRQRNYAGRWDVLIQQATQCLNRLIQIAARKKRNYILDQTNVYGSAQRRKMRPFEGFQRKAIVICPTDEDLKDRTIKRTDEEGKDVPDHAVLEMKANFTLPDVGDFLDEVLFIELQREEADKLVRQYNEEGRKAGPPPEKRFDNRGGGGFRGRGGGGGFQRYENRGPPGGNRGGFQNRGGGSGGGGNYRGGFNRSGGGGYSQNRWGNNNRDNNNSNNRGSYNRAPQQQPPPQQPPPPQPPPQQPPPPPSYSPARNPPGASTYNKNSNIPGSSANTSTPTVSSYSPPQPSYSQPPYNQGGYSQGYTAPPPPPPPPPAYNYGSYGGYNPAPYTPPPPPTAQTYPQPSYNQYQQYAQQWNQYYQNQGQWPPYYGNYDYGSYSGNTQGGTSTQ
B3: Structural maintenance of chromosomes protein 3 (other)
chain: MYIKQVIIQGFRSYRDQTIVDPFSSKHNVIVGRNGSGKSNFFYAIQFVLSDEFSHLRPEQRLALLHEGTGPRVISAFVEIIFDNSDNRLPIDKEEVSLRRVIGAKKDQYFLDKKMVTKNDVMNLLESAGFSRSNPYYIVKQGKINQMATAPDSQRLKLLREVAGTRVYDERKEESISLMKETEGKREKINELLKYIEERLHTLEEEKEELAQYQKWDKMRRALEYTIYNQELNETRAKLDELSAKRETSGEKSRQLRDAQQDARDKMEDIERQVRELKTKISAMKEEKEQLSAERQEQIKQRTKLELKAKDLQDELAGNSEQRKRLLKERQKLLEKIEEKQKELAETEPKFNSVKEKEERGIARLAQATQERTDLYAKQGRGSQFTSKEERDKWIKKELKSLDQAINDKKRQIAAIHKDLEDTEANKEKNLEQYNKLDQDLNEVKARVEELDRKYYEVKNKKDELQSERNYLWREENAEQQALAAKREDLEKKQQLLRAATGKAILNGIDSINKVLDHFRRKGINQHVQNGYHGIVMNNFECEPAFYTCVEVTAGNRLFYHIVDSDEVSTKILMEFNKMNLPGEVTFLPLNKLDVRDTAYPETNDAIPMISKLRYNPRFDKAFKHVFGKTLICRSMEVSTQLARAFTMDCITLEGDQVSHRGALTGGYYDTRKSRLELQKDVRKAEEELGELEAKLNENLRRNIERINNEIDQLMNQMQQIETQQRKFKASRDSILSEMKMLKEKRQQSEKTFMPKQRSLQSLEASLHAMESTRESLKAELGTDLLSQLSLEDQKRVDALNDEIRQLQQENRQLLNERIKLEGIITRVETYLNENLRKRLDQVEQELNELRETEGGTVLTATTSELEAINKRVKDTMARSEDLDNSIDKTEAGIKELQKSMERWKNMEKEHMDAINHDTKELEKMTNRQGMLLKKKEECMKKIRELGSLPQEAFEKYQTLSLKQLFRKLEQCNTELKKYSHVNKKALDQFVNFSEQKEKLIKRQEELDRGYKSIMELMNVLELRKYEAIQLTFKQVSKNFSEVFQKLVPGGKATLVMKKGDVEGSQSQDEGEGSGESERGSGSQSSVPSVDQFTGVGIRVSFTGKQGEMREMQQLSGGQKSLVALALIFAIQKCDPAPFYLFDEIDQALDAQHRKAVSDMIMELAVHAQFITTTFRPELLESADKFYGVKFRNKVSHIDVITAEMAKDFVEDDTTHG
B4: Structural maintenance of chromosomes protein 1A (other)
chain: MGFLKLIEIENFKSYKGRQIIGPFQRFTAIIGPNGSGKSNLMDAISFVLGEKTSNLRVKTLRDLIHGAPVGKPAANRAFVSMVYSEEGAEDRTFARVIVGGSSEYKINNKVVQLHEYSEELEKLGILIKARNFLVFQGAVESIAMKNPKERTALFEEISRSGELAQEYDKRKKEMVKAEEDTQFNYHRKKNIAAERKEAKQEKEEADRYQRLKDEVVRAQVQLQLFKLYHNEVEIEKLNKELASKNKEIEKDKKRMDKVEDELKEKKKELGKMMREQQQIEKEIKEKDSELNQKRPQYIKAKENTSHKIKKLEAAKKSLQNAQKHYKKRKGDMDELEKEMLSVEKARQEFEERMEEESQSQGRDLTLEENQVKKYHRLKEEASKRAATLAQELEKFNRDQKADQDRLDLEERKKVETEAKIKQKLREIEENQKRIEKLEEYITTSKQSLEEQKKLEGELTEEVEMAKRRIDEINKELNQVMEQLGDARIDRQESSRQQRKAEIMESIKRLYPGSVYGRLIDLCQPTQKKYQIAVTKVLGKNMDAIIVDSEKTGRDCIQYIKEQRGEPETFLPLDYLEVKPTDEKLRELKGAKLVIDVIRYEPPHIKKALQYACGNALVCDNVEDARRIAFGGHQRHKTVALDGTLFQKSGVISGGASDLKAKARRWDEKAVDKLKEKKERLTEELKEQMKAKRKEAELRQVQSQAHGLQMRLKYSQSDLEQTKTRHLALNLQEKSKLESELANFGPRINDIKRIIQSREREMKDLKEKMNQVEDEVFEEFCREIGVRNIREFEEEKVKRQNEIAKKRLEFENQKTRLGIQLDFEKNQLKEDQDKVHMWEQTVKKDENEIEKLKKEEQRHMKIIDETMAQLQDLKNQHLAKKSEVNDKNHEMEEIRKKLGGANKEMTHLQKEVTAIETKLEQKRSDRHNLLQACKMQDIKLPLSKGTMDDISQEEGSSQGEDSVSGSQRISSIYAREALIEIDYGDLCEDLKDAQAEEEIKQEMNTLQQKLNEQQSVLQRIAAPNMKAMEKLESVRDKFQETSDEFEAARKRAKKAKQAFEQIKKERFDRFNACFESVATNIDEIYKALSRNSSAQAFLGPENPEEPYLDGINYNCVAPGKRFRPMDNLSGGEKTVAALALLFAIHSYKPAPFFVLDEIDAALDNTNIGKVANYIKEQSTCNFQAIVISLKEEFYTKAESLIGVYPEQGDCVISKVLTFDLTKYPDANPNPNEQ
B5: Huntingtin-interacting protein 1-related protein (other)
chain: MNSIKNVPARVLSRRPGHSLEAEREQFDKTQAISISKAINTQEAPVKEKHARRIILGTHHEKGAFTFWSYAIGLPLPSSSILSWKFCHVLHKVLRDGHPNVLHDCQRYRSNIREIGDLWGHLHDRYGQLVNVYTKLLLTKISFHLKHPQFPAGLEVTDEVLEKAAGTDVNNIFQLTVEMFDYMDCELKLSESVFRQLNTAIAVSQMSSGQCRLAPLIQVIQDCSHLYHYTVKLLFKLHSCLPADTLQGHRDRFHEQFHSLRNFFRRASDMLYFKRLIQIPRLPEGPPNFLRASALAEHIKPVVVIPEEAPEDEEPENLIEISTGPPAGEPVVVADLFDQTFGPPNGSVKDDRDLQIESLKREVEMLRSELEKIKLEAQRYIAQLKSQVNALEGELEEQRKQKQKALVDNEQLRHELAQLRAAQLEGERSQGLREEAERKASATEARYNKLKEKHSELVHVHAELLRKNADTAKQLTVTQQSQEEVARVKEQLAFQVEQVKRESELKLEEKSDQLEKLKRELEAKAGELARAQEALSHTEQSKSELSSRLDTLSAEKDALSGAVRQREADLLAAQSLVRETEAALSREQQRSSQEQGELQGRLAERESQEQGLRQRLLDEQFAVLRGAAAEAAGILQDAVSKLDDPLHLRCTSSPDYLVSRAQEALDAVSTLEEGHAQYLTSLADASALVAALTRFSHLAADTIINGGATSHLAPTDPADRLIDTCRECGARALELMGQLQDQQALRHMQASLVRTPLQGILQLGQELKPKSLDVRQEELGAVVDKEMAATSAAIEDAVRRIEDMMNQARHASSGVKLEVNERILNSCTDLMKAIRLLVTTSTSLQKEIVESGRGAATQQEFYAKNSRWTEGLISASKAVGWGATQLVEAADKVVLHTGKYEELIVCSHEIAASTAQLVAASKVKANKHSPHLSRLQECSRTVNERAANVVASTKSGQEQIEDRDTMDFSGLSLIKLKKQEMETQVRVLELEKTLEAERMRLGELRKQHYVLAGASGSPGEEVAIRPSTAPRSVTTKKPPLAQKPSVAPRQDHQLDKKDGIYPAQLVNY

Molecular target: T1, HA-PTEN (human, UniProt P60484 1-403)
T1 construct: Expressed in DU145 cells and immunoprecipitated with anti-PTEN antibody for mass spectrometry; also called exogenous PTEN; pcDNA3-HA-PTEN; not shown: HA tag
Assay: anti-PTEN immunoprecipitation from DU145 cells transfected with HA-PTEN, SDS-PAGE, mass-spectrometric peptide sequencing of the bands (association in the precipitate)
Source text: FIG. 2A is a Western blot. Lysates from DU145 cells transfected with HA-PTEN were immunoprecipitated with an anti-PTEN antibody followed by mass-spectrometric peptide sequencing. WWP1 and NEDD4-1 were identified.
In order to identify the E3 ligases that induce PTEN atypical K27-linked poly-ubiquitination, exogenous PTEN was immunoprecipitated from DU145 cells, followed by identification of the proteins that interacted with PTEN by mass spectrometry (FIG. 2A; FIG. 18).

Binder | binding result
B1 | binds
B2 | binds
B3 | binds
B4 | binds
B5 | binds
